Measured values published in US20230151091A1 (NEW YORK UNIVERSITY, published 2023).

T1: mouse MuSK (mouse, UniProt Q61006 22-494, limits assumed)
T1 construct: Coated on ELISA plates or on the Biacore chip; also called full length mouse MuSK; mouse MuSK (in house produced in HEK293 cells)
T1 sequence (looked up): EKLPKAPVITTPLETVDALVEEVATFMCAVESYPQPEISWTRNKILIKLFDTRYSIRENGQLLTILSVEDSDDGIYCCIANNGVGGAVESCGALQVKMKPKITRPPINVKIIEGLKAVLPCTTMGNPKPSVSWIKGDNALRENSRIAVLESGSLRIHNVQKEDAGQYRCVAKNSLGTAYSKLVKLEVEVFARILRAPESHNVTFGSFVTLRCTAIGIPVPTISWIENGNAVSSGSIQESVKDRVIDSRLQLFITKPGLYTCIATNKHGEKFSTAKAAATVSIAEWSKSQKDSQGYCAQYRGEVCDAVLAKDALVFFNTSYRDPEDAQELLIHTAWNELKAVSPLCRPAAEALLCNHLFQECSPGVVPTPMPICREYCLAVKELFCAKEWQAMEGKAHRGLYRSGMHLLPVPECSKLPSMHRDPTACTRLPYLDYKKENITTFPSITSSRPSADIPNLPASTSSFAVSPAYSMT

T2: rat MuSK (rat, UniProt Q62838 22-494, limits assumed)
T2 construct: Coated on Biacore chip (200RU) or ELISA plate
T2 sequence (looked up): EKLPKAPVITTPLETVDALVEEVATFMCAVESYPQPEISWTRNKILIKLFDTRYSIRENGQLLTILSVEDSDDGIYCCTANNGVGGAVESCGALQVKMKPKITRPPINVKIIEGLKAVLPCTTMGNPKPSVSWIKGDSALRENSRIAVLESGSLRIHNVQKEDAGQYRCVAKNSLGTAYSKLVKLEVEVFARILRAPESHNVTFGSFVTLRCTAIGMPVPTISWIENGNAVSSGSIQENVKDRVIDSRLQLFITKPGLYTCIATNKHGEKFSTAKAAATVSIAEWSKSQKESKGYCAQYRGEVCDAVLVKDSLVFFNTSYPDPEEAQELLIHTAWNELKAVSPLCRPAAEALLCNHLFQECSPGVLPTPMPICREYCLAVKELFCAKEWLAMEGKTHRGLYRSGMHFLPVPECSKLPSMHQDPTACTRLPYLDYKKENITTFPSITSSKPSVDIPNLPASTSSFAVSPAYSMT

T3: mouse MuSK, endogenous (C2C12 myotubes; neuromuscular synapses of mice) (mouse, UniProt Q61006 22-868)
T3 sequence (looked up): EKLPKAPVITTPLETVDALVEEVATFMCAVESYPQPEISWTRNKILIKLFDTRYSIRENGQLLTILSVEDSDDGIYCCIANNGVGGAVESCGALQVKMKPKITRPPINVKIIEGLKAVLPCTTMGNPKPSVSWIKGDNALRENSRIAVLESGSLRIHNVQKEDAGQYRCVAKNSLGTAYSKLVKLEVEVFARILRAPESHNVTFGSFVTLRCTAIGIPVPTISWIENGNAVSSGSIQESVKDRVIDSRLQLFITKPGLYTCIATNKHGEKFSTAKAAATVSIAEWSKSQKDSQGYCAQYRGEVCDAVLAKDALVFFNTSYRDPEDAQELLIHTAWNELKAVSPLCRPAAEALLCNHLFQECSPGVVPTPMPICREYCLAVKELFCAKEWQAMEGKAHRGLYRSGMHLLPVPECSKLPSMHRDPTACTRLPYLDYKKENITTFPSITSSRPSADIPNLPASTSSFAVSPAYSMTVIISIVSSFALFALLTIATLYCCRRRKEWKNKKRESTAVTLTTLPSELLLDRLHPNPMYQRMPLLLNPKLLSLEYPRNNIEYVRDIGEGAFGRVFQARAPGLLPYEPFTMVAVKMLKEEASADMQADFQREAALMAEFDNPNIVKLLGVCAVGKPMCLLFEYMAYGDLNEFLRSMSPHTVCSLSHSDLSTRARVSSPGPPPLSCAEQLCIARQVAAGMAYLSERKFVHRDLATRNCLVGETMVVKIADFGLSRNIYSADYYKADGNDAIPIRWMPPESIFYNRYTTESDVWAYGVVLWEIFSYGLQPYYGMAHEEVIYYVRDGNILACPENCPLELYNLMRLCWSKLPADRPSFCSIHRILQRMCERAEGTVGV

T4: mECD: full-length extracellular region of mouse MuSK (E22 to T494) with C-terminal Avi- and His6-tags (mouse, UniProt Q61006 22-494, biotinylated in vitro using the BirA enzyme)
T4 construct: range 22-494; also called mouse ECD; not shown: Avi- and His6-tags
T4 sequence (looked up): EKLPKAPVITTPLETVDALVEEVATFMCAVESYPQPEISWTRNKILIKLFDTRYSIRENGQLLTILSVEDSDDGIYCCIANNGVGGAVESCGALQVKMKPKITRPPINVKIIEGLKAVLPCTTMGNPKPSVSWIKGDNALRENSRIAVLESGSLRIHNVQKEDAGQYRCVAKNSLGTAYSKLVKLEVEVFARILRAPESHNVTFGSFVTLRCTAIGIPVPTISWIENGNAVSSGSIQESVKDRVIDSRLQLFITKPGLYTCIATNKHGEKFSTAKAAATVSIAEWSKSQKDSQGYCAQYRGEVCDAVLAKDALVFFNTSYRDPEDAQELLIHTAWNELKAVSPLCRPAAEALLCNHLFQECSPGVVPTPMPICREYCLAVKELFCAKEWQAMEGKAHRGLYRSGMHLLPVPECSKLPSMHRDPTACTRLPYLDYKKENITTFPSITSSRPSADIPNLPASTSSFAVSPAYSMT

T5: mFz: Fz domain and C-terminal flanking sequence of mouse MuSK (D307 to T494) with C-terminal Avi- and … (mouse, UniProt Q61006 307-494, limits assumed, biotinylated in vitro using the BirA enzyme)
T5 construct: also called mouse Fz; not shown: Avi- and His6-tags
T5 sequence (looked up): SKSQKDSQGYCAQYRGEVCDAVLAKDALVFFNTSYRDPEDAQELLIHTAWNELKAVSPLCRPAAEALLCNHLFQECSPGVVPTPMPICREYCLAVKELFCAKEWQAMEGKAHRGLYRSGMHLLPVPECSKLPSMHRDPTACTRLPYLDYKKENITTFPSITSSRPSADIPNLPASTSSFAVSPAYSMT

T6: hECD: full-length extracellular region of human MuSK (E22 to T495) with C-terminal Avi- and His6-tags (human, UniProt O15146 22-495, biotinylated in vitro using the BirA enzyme)
T6 construct: also called human ECD; not shown: Avi- and His6-tags
T6 sequence: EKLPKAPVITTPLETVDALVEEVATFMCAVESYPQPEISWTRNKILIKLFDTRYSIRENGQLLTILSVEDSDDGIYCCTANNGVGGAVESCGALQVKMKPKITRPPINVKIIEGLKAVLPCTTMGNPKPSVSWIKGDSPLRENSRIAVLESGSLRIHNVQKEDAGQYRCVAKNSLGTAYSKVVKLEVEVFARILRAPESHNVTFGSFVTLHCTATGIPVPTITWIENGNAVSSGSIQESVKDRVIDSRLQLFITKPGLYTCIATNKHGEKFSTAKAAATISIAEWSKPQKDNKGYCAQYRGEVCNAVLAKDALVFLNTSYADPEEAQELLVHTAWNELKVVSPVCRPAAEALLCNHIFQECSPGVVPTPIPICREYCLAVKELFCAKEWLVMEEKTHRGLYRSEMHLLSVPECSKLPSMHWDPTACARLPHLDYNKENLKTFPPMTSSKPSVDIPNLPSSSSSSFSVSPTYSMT

T7: hFz: Fz domain and C-terminal flanking sequence of human MuSK (K314-T495) with C-terminal Avi- and His6-tags (human, UniProt O15146 314-495, biotinylated in vitro using the BirA enzyme)
T7 construct: also called human Fz; not shown: Avi- and His6-tags
T7 sequence: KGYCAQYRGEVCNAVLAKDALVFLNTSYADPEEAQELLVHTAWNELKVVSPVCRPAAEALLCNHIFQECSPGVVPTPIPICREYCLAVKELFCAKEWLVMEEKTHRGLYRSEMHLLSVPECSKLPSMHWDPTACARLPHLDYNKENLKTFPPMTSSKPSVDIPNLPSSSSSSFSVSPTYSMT

B1: 3B2g1m4 (antibody, human IgG1, V domains shown)
VH: EVQLLESGGGLVQPGGSLRLSCAASGFTFSDYGMSWVRQAPGKGLEWVSAIPWQGGSTYYKESVKGRFTISRDNSKNTLYLQMNSLRAEDTAVYYCAKRSGRIAFGALDAWGQGTLVTVSS
VL: QTVVTQEPSFSVSPGGTVTLTCGLSSGSVTSSNYPDWYQQTPGQAPRTLIYSTDSRHSGVPDRFSGSILGNKAALTITGAQADDESDYYCGLYMYSGSKNYVFGGGTKLTVL
notes: human IgG1-LALA backbone; produced in HEK293 cells
B2: 3B2g2m2 (antibody, human IgG1, V domains shown)
VH: EVQLLESGGGLVQPGGSLRLSCAASGFTFSDYGMSWVRQAPGKGLEWVSAIPGSGGSTYYKESVKGRFTISRDNSKNTLYLQMNSLRAEDTAVYYCAKRSGRIAFGALDAWGQGTLVTVSS
VL: QTVVTQEPSFSVSPGGTVTLTCGLSSGSVTSSNYPDWYQQTPGQAPRTLIYSTDSRHSGVPDRFSGSILGNKAALTITGAQADDESDYYCGLYSYSGSKNYVFGGGTKLTVL
notes: as for B1
B3: hIgG1-X17 (antibody, V domains shown)
VH: EVQLVESGGGLVQPGGSLRLSCAASGFTISYSSIHWVRQAPGKGLEWVASIYSSSGSTYYADSVKGRFTISADTSKNTAYLQMNSLRAEDTAVYYCARGDHGYYVFGYLGMDYWGQGTLVTVSS
VL: DIQMTQSPSSLSASVGDRVTITCRASQSVSSAVAWYQQKPGKAPKLLIYSASSLYSGVPSRFSGSRSGTDFTLTISSLQPEDFATYYCQQSYKPGALITFGQGTKVEIK
notes: human IgG1 Fc containing LALA mutations; also called hIgG-X17; X17 in human IgG1 format

Tests used:
cynomolgus monkey MuSK [1] = molecular target: T8, cynomolgus monkey MuSK (cynomolgus monkey, UniProt A0A2K5USF6 24-487); assay: Biacore, MuSK on chip, association pH 7.4, dissociation pH 5.5
Procedure: (§1) For affinity determination, a CMS chip was coated with cynomolgus monkey, rat and mouse MuSK (200RU) and 66.7 nM of antibody was applied and kinetic parameters calculated (Table 8). The following conclusions could be drawn: (1) 3B2g1m3 and 3B2g2m3 (m3 variants) show significant drop in affinity for MuSK for all species tested; (2) 3B2g1m2 and 3B2g2m2 (m2 variants) show some drop in affinity for MuSK; (3) 3B2g1m1, 3B2g2m1, 3B2g1m4, 3B2g2m4 (ml and m4 variants) show no drop in affinity for MuSK for all species tested; and (4) for all clones there is no difference between g1 and g2 variants (VL methionine versus serine in CDR3).
(§2) In order to study pH dependent binding of our antibodies to MuSK, the same Biacore was used as above, but now dissociation was done at pH 5.5 instead of pH 7.4. […] The following conclusions could be drawn for the different variants: (1) 3B2g1m3 and 3B2g2m3 (m3 variants) show significant drop in affinity for MuSK for all species tested; (2) 3B2g1m2 and 3B2g2m2 (m2 variants) show some drop in affinity for MuSK; (3) 3B2g1m1, 3B2g2m1, 3B2g1m4, 3B2g2m4 (m1 and m4 variants) show no drop in affinity for MuSK for all species tested; and (4) for all clones there is no difference between g1 and g2 variants (VL methionine versus serine in CDR3).

mouse MuSK [2] = molecular target: T1, mouse MuSK; assay: as above
Procedure: as §1, §2

rat MuSK [3] = molecular target: T2, rat MuSK; assay: as above
Procedure: as §1, §2

[4] = molecular target: T3, mouse MuSK, endogenous (C2C12 myotubes; …); assay: cell-based or functional assay
cynomolgus monkey MuSK [5] = molecular target: T8, cynomolgus monkey MuSK; assay: Biacore, MuSK on chip (200RU), 66.7 nM mAb, dissociation pH 7.4
Procedure: as §1

mouse MuSK [6] = molecular target: T1, mouse MuSK; assay: as above
Procedure: as §1

rat MuSK [7] = molecular target: T2, rat MuSK; assay: as above
Procedure: as §1

[8] = molecular target: T4, mECD: full-length extracellular region …; assay: bead-binding assay, IgG format: biotinylated antigen on streptavidin beads, flow cytometry, 1:1 fit; average ± s.d., n=3
[9] = molecular target: T5, mFz: Fz domain and C-terminal flanking …; assay: as above
[10] = molecular target: T6, hECD: full-length extracellular region …; assay: as above
[11] = molecular target: T7, hFz: Fz domain and C-terminal flanking …; assay: as above

T8 sequence (A0A2K5USF6 entry or part of it): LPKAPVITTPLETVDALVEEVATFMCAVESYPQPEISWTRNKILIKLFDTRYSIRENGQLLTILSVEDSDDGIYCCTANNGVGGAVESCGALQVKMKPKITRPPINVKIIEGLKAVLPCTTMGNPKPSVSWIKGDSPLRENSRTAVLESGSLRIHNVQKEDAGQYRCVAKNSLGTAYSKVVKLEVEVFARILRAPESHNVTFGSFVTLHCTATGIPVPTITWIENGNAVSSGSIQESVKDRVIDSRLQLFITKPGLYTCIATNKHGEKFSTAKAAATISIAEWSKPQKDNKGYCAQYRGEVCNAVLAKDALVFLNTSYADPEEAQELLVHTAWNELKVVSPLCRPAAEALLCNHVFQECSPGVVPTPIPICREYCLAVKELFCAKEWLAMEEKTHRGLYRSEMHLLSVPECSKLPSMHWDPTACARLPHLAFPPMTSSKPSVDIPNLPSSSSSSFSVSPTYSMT

Binder | R0 (cynomolgus monkey MuSK [1]) [RU] | koff (cynomolgus monkey MuSK [1]) [s⁻¹] | kon (cynomolgus monkey MuSK [1]) [M⁻¹ s⁻¹] | R0 (mouse MuSK [2]) [RU] | koff (mouse MuSK [2]) [s⁻¹] | kon (mouse MuSK [2]) [M⁻¹ s⁻¹] | R0 (rat MuSK [3]) [RU] | koff (rat MuSK [3]) [s⁻¹] | kon (rat MuSK [3]) [M⁻¹ s⁻¹] | MuSK phosphorylation in C2C12 myotubes [4] | R0 (cynomolgus monkey MuSK [5]) [RU] | koff (cynomolgus monkey MuSK [5]) [s⁻¹] | kon (cynomolgus monkey MuSK [5]) [M⁻¹ s⁻¹] | R0 (mouse MuSK [6]) [RU] | koff (mouse MuSK [6]) [s⁻¹] | kon (mouse MuSK [6]) [M⁻¹ s⁻¹] | R0 (rat MuSK [7]) [RU] | koff (rat MuSK [7]) [s⁻¹] | kon (rat MuSK [7]) [M⁻¹ s⁻¹] | other results
B1 | 146 | 0.00261 | 680000 | 191 | 0.00304 | 980000 | 171 | 0.00558 | 950000 | ~58 % of 1 nM agrin | 140 | 0.00086 | 730000 | 192 | 0.00065 | 1.08e+06 | 155 | 0.00192 | 1.12e+06 | –
B2 | 146 | 0.00326 | 860000 | 153 | 0.0882 | 210000 | 145 | 0.0973 | 40000 | ~80 % of 1 nM agrin | 136 | 0.00179 | 890000 | 158 | 0.00231 | 1.71e+06 | 130 | 0.00281 | 1.56e+06 | –
B3 | – | – | – | – | – | – | – | – | – | – | – | – | – | – | – | – | – | – | – | Kd [8]: 1040 pM; Kd [9]: 680 pM; Kd [10]: 860 pM; Kd [11]: 560 pM
